{
  "source": "IntAct's records for PubMed 25910212",
  "parents": {"B1": {"name": "Adiponectin (Homo sapiens), Q15848 (parent)", "chain": "MLLLGAVLLLLALPGHDQETTTQGPGVLLPLPKGACTGWMAGIPGHPGHNGAPGRDGRDGTPGEKGEKGDPGLIGPKGDIGETGVPGAEGPRGFPGIQGRKGEPGEGAYVYRSAFSVGLETYVTIPNMPIRFTKIFYNQQNHYDGSTGKFHCNIPGLYYFAYHITVYMKDVKVSLFKKDKAMLFTYDQYQENNVDQASGSVLLHLEVGDQVWLQVYGEGERNGLYADNDNDSTFTGFLLYHDTN", "partner": "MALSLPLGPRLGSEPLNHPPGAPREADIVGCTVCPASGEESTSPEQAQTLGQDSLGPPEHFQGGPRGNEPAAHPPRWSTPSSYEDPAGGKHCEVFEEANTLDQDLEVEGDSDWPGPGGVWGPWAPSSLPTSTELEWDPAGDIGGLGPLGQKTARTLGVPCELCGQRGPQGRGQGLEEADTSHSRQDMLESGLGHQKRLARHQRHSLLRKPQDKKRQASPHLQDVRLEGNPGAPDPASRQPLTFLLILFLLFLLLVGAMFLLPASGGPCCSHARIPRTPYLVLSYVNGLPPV"}, "B2": {"name": "E3 ubiquitin-protein ligase Midline-1 (Homo sapiens), O15344 (parent)", "chain": "METLESELTCPICLELFEDPLLLPCAHSLCFNCAHRILVSHCATNESVESITAFQCPTCRHVITLSQRGLDGLKRNVTLQNIIDRFQKASVSGPNSPSETRRERAFDANTMTSAEKVLCQFCDQDPAQDAVKTCVTCEVSYCDECLKATHPNKKPFTGHRLIEPIPDSHIRGLMCLEHEDEKVNMYCVTDDQLICALCKLVGRHRDHQVAALSERYDKLKQNLESNLTNLIKRNTELETLLAKLIQTCQHVEVNASRQEAKLTEECDLLIEIIQQRRQIIGTKIKEGKVMRLRKLAQQIANCKQCIERSASLISQAEHSLKENDHARFLQTAKNITERVSMATASSQVLIPEINLNDTFDTFALDFSREKKLLECLDYLTAPNPPTIREELCTASYDTITVHWTSDDEFSVVSYELQYTIFTGQANVVSLCNSADSWMIVPNIKQNHYTVHGLQSGTKYIFMVKAINQAGSRSSEPGKLKTNSQPFKLDPKSAHRKLKVSHDNLTVERDESSSKKSHTPERFTSQGSYGVAGNVFIDSGRHYWEVVISGSTWYAIGLAYKSAPKHEWIGKNSASWALCRCNNNWVVRHNSKEIPIEPAPHLRRVGILLDYDNGSIAFYDALNSIHLYTFDVAFAQPVCPTFTVWNKCLTIITGLPIPDHLDCTEQLP"}, "B3": {"name": "Retinoic acid receptor RXR-gamma (Homo sapiens), P48443 (parent)", "chain": "MYGNYSHFMKFPAGYGGSPGHTGSTSMSPSAALSTGKPMDSHPSYTDTPVSAPRTLSAVGTPLNALGSPYRVITSAMGPPSGALAAPPGINLVAPPSSQLNVVNSVSSSEDIKPLPGLPGIGNMNYPSTSPGSLVKHICAICGDRSSGKHYGVYSCEGCKGFFKRTIRKDLIYTCRDNKDCLIDKRQRNRCQYCRYQKCLVMGMKREAVQEERQRSRERAESEAECATSGHEDMPVERILEAELAVEPKTESYGDMNMENSTNDPVTNICHAADKQLFTLVEWAKRIPHFSDLTLEDQVILLRAGWNELLIASFSHRSVSVQDGILLATGLHVHRSSAHSAGVGSIFDRVLTELVSKMKDMQMDKSELGCLRAIVLFNPDAKGLSNPSEVETLREKVYATLEAYTKQKYPEQPGRFAKLLLRLPALRSIGLKCLEHLFFFKLIGDTPIDTFLMEMLETPLQIT", "partner": "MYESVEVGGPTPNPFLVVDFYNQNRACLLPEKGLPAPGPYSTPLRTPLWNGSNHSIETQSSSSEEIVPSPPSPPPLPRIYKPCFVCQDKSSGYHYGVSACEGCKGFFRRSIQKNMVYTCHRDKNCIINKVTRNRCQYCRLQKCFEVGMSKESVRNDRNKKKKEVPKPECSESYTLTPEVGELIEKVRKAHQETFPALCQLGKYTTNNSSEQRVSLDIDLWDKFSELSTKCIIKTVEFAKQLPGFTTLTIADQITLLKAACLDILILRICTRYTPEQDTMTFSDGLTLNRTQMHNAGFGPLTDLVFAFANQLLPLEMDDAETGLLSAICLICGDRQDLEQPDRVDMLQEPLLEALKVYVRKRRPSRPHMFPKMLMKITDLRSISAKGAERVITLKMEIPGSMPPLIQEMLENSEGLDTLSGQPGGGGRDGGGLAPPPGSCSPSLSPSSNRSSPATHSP"}, "B4": {"name": "Beta-crystallin B1 (Homo sapiens), P53674 (parent)", "chain": "MSQAAKASASATVAVNPGPDTKGKGAPPAGTSPSPGTTLAPTTVPITSAKAAELPPGNYRLVVFELENFQGRRAEFSGECSNLADRGFDRVRSIIVSAGPWVAFEQSNFRGEMFILEKGEYPRWNTWSSSYRSDRLMSFRPIKMDAQEHKISLFEGANFKGNTIEIQGDDAPSLWVYGFSDRVGSVKVSSGTWVGYQYPGYRGYQYLLEPGDFRHWNEWGAFQPQMQSLRRLRDKQWHLEGSFPVLATEPPK", "partner": "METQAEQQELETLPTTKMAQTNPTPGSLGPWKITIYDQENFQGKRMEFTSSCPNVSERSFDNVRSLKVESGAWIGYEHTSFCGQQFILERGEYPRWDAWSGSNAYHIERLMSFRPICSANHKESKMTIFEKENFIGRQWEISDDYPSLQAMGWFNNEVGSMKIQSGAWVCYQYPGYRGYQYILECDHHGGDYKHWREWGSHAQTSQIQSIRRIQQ"}, "B5": {"name": "Beta-crystallin A4 (Homo sapiens), P53673 (parent)", "chain": "MTLQCTKSAGPWKMVVWDEDGFQGRRHEFTAECPSVLELGFETVRSLKVLSGAWVGFEHAGFQGQQYILERGEYPSWDAWGGNTAYPAERLTSFRPAACANHRDSRLTIFEQENFLGKKGELSDDYPSLQAMGWEGNEVGSFHVHSGAWVCSQFPGYRGFQYVLECDHHSGDYKHFREWGSHAPTFQVQSIRRIQQ", "partner": "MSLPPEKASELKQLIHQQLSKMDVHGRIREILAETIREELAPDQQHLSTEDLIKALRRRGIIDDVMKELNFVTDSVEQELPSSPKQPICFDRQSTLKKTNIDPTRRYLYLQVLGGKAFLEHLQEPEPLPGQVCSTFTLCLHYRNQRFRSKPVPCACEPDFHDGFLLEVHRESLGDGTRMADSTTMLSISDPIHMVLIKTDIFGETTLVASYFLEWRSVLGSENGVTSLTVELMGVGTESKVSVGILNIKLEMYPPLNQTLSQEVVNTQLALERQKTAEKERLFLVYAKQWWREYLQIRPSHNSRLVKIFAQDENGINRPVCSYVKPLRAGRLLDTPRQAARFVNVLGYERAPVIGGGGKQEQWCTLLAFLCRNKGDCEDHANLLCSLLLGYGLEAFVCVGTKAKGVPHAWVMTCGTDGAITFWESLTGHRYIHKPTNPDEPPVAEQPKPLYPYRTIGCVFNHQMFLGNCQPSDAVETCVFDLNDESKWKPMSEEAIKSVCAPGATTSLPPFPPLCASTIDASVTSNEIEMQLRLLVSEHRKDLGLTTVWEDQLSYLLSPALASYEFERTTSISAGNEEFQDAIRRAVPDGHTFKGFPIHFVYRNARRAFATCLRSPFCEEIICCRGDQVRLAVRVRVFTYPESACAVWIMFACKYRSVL"}, "B6": {"name": "Lipopolysaccharide-induced tumor necrosis factor-alpha factor (Homo sapiens), Q99732 (parent)", "chain": "MSVPGPYQAATGPSSAPSAPPSYEETVAVNSYYPTPPAPMPGPTTGLVTGPDGKGMNPPSYYTQPAPIPNNNPITVQTVYVQHPITFLDRPIQMCCPSCNKMIVSQLSYNAGALTWLSCGSLCLLGCIAGCCFIPFCVDALQDVDHYCPNCRALLGTYKRL"}},
  "data": [
    {"variants_of": "B1", "conditions": "with SYNE4, Q8N205-2", "values": [
      {"variant": "I164T", "effect of a mutation on the interaction": "with no effect"}
    ]},
    {"variants_of": "B2", "conditions": "with meox1_human MEOX1, P50221", "values": [
      {"variant": "K370E", "effect of a mutation on the interaction": "with no effect"},
      {"variant": "P151L", "effect of a mutation on the interaction": "with no effect"},
      {"variant": "L626P", "effect of a mutation on the interaction": "with no effect"},
      {"variant": "C266R", "effect of a mutation on the interaction": "with no effect"}
    ]},
    {"variants_of": "B3", "conditions": "with RARA", "values": [
      {"variant": "G14S", "effect of a mutation on the interaction": "with no effect"}
    ]},
    {"variants_of": "B4", "conditions": "with crba1_human CRYBA1, P05813", "values": [
      {"variant": "S228P", "effect of a mutation on the interaction": "disrupting interaction strength"}
    ]},
    {"variants_of": "B5", "conditions": "with cep76_human CEP76, Q8TAP6", "values": [
      {"variant": "F94S", "effect of a mutation on the interaction": "disrupting interaction strength"},
      {"variant": "V36M", "effect of a mutation on the interaction": "disrupting interaction strength"},
      {"variant": "L69P", "effect of a mutation on the interaction": "disrupting interaction strength"}
    ]},
    {"variants_of": "B6", "conditions": "with UBQLN1, Q9UMX0-2", "values": [
      {"variant": "I92V", "effect of a mutation on the interaction": "with no effect"},
      {"variant": "G112S", "effect of a mutation on the interaction": "disrupting interaction strength"}
    ]},
    {"variants_of": "B6", "conditions": "with stam2_human STAM2, O75886", "values": [
      {"variant": "I92V", "effect of a mutation on the interaction": "with no effect"},
      {"variant": "G112S", "effect of a mutation on the interaction": "disrupting interaction strength"}
    ]},
    {"variants_of": "B6", "conditions": "with reep6_human REEP6, Q96HR9", "values": [
      {"variant": "I92V", "effect of a mutation on the interaction": "with no effect"},
      {"variant": "G112S", "effect of a mutation on the interaction": "disrupting interaction strength"}
    ]},
    {"variants_of": "B6", "conditions": "with hgs_human HGS", "values": [
      {"variant": "I92V", "effect of a mutation on the interaction": "with no effect"},
      {"variant": "G112S", "effect of a mutation on the interaction": "disrupting interaction strength"}
    ]},
    {"variants_of": "B6", "conditions": "with OPTN", "values": [
      {"variant": "I92V", "effect of a mutation on the interaction": "with no effect"},
      {"variant": "G112S", "effect of a mutation on the interaction": "disrupting interaction strength"}
    ]}
  ]
}
